In series [1] the target is eYFP-CP2c WT with SUMO2 conjugation. Description: FRET. The settings on record: in vitro, n = 3, parent: est. 13, read off a plot.
For series [2], the target named is eYFP-CP2c WT with SUMO3 conjugation. Description: FRET. The settings on record: in vitro; eYFP-CP2c conjugated with SUMO3 (lane 12); n = 3; parent: est. 13; read off a plot.
The target of series [3] is eYFP-CP2c WT with SUMO conjugation (SUMO1), Q9ERA0;P63165. Description: FRET. The settings on record: in vitro; eYFP-CP2c conjugated with SUMO1 (lane 6); n = 3; parent: est. 75; read off a plot.
Series [4] deals with PSME3 WT-dTomato with SUMO3 conjugation, P61289;P55854. Description: FRET. The settings on record: in vitro; PSME3-dTomato conjugated with SUMO3 (lane 8); n = 3; parent: est. 24; read off a plot.
In series [5] the target is PSME3 WT-dTomato with SUMO1 conjugation, P61289;P63165. Description: FRET. The settings on record: in vitro; PSME3-dTomato conjugated with SUMO1 (lane 6); n = 3; parent: est. 55; read off a plot.
The target in series [6] is PSME3 WT-dTomato with SUMO2 conjugation, P61289;P61956. Description: FRET. The settings on record: in vitro; PSME3-dTomato conjugated with SUMO2 (lane 7); n = 3; parent: est. 21; read off a plot.
Series [7] deals with the molecule itself. Description: cross-linking + co-IP; DSP XL-IP: live transfected cells crosslinked with 2 mM DSP in PBS 3 hours on ice, lysed, immunoprecipitated, Western blot with or without DTT; cells arrested at G2-M with MG132 (Fig. 4G).

As for “PSME3 WT-dTomato (non-SUMOylated) (from UniProt P61289) K6R; K12R; K14R; K110R; K123R; K243R”, the response was 9% in series [1] (eYFP-CP2c conjugated with SUMO2 (lane 11)) and 7% in series [2].
In the case of “PSME3 WT-dTomato (non-SUMOylated) (from UniProt P61289) SIM m70 (ILLTN→IRRTN) + SIM m115 (LVDII→RKDII)”, the response turned out to be 11% in series [3] and 16% in series [1] (eYFP-CP2c conjugated with SUMO2 (lane 7)).
Consider “eYFP-CP2c WT (non-SUMOylated) (from UniProt Q9ERA0) SIM m158: VGVID→KGKID”, for which the figures for the response in series [4], in series [5] and in series [6] were 12%, 7% and 9%, respectively.

B1: Flag-tagged CP2c WT (natural protein, mouse, UniProt Q9ERA0 1-502, looked up)
chain: MAWALKLPLADEVIESGLVQDFDASLSGIGQELGAGAYSMSDVLALPIFKQEESSLPPDNENEILPFQYVLCAATSPAVKLHDETLTYLNQGQSYEIRMLDNRKLGELPELNGKLVKSIFRVVFHDRRLQYTEHQQLEGWRWNRPGDRILDIDIPMSVGVIDPRANPTQLNTVEFLWDPSKRTSVFIQVHCISTEFTMRKHGGEKGVPFRVQIDTFKENGNGEYTEHLHSASCQIKVFKPKGADRKQKIDREKMEKRTPHEKEKYQPSYETTILTECSPWPEITYVNNSPSPGFNSSHSSFSLGEGNGSPNHQPEPPPPVTDNLLPTTTPQEAQQWLHRNRFSTFTRLFTNFSGADLLKLTRDDVIQICGPADGIRLFNALKGRMVRPRLTIYVCQESLQLREQQPQPQPQPQKQEDGDSNGTFFVYHAIYLEELTAVELTEKIAQLFSISPHQISQIYKQGPTGIHVVISDEMVQNFQEEACFILDTMEAETSDSYHVILK
notes: CP2c (Tfcp2), mouse cDNA, in pcDNA3-Flag; In cells part of it is SUMO1-conjugated at K50; also called Flag-CP2c; source: 293T, transfected, in lysate
Take B1: in series [7], the “stoichiometry N” value turned out to be 2.

Source of the values: PMC9882985 (Science Advances, 2023).
